According to PMC2881335:
Where “and” joins values, the source holds several entries; their conditions need not be identical. Equal values may be shown once.

B1: staphylococcal complement inhibitor SCIN-A (natural protein)
chain: STSLPTSNEYQNEKLANELKSLLDELNVNELATGSLNTYYKRTIKISGQKAMYALKSKDFKKMSEAKYQLQKIYNEIDEALKSKY

Columns and labels:
[1] = biological target: complement C3b, site-specifically biotinylated at the thioester moiety (UniProt P01024); test: SPR
complement C3b = complement C3b (UniProt P01024); test: ITC
[2] = biological target: complement C3b, site-specifically biotinylated at the thioester moiety (UniProt P01024); test: SPR; remark: listed apart in the source

Row | Molecule | decay half-life of the convertase [1] | Kd (complement C3b) | stoichiometry N (complement C3b) | Kd [2]
1 | Bb fragment of factor B (from UniProt P00751 260-764) (domain or fragment) | 5 to 6 min |  |  | 
2 | B1 |  | 264 nM | 0.75 | 169 nM and 177 nM
